# In patent publication US20210230570:
# Experiments:
# [1] = biological target: Factor X, P00742
# [2] = biological target: plasma purified human AT-III (antithrombin III), in complex with full-length unfractionated heparin (AT-III/UFH)
# [3] = biological target: Factor X (FX), P00742
# Chain of Factor X (FX), P00742 (P00742 whole entry, looked up): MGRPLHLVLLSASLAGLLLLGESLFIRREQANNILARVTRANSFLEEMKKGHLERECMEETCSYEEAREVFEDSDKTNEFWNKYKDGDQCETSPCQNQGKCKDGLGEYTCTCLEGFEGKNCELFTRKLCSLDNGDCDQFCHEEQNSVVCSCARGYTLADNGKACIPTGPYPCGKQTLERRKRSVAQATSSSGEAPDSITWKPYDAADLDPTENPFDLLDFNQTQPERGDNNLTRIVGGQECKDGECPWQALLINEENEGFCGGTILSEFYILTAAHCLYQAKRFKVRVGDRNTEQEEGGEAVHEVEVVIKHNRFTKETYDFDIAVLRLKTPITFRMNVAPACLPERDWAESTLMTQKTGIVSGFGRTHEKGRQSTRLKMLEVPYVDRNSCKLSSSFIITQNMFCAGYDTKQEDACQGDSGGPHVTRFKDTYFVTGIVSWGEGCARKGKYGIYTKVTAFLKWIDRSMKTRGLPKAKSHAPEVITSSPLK
# Chain of Factor X, P00742 (P00742 whole entry, looked up): as above
Protein,"kcat of FX activation by FIXa (Xase complex with FVIIIa, PC/PS vesicles, Ca2+) [1]",K0.5-mut/K0.5-wt (against Catalyst Biosciences WT FIXa) [2],kcat/KM [3]
FIXa-Y259F/K265T/Y345T (protein) chain 1: YNSGKLEEFVQGNLERECMEEKCSFEEAREVFENTERTTEFWKQYVDGDQCESNPCLNGGSCKDDINSYECWCPFGFEGKNCELDVTCNIKNGRCEQFCKNSADNKVVCSCTEGYRLAENQKSCEPAVPFPCGRVSVSQTSKLTR chain 2: VVGGEDAKPGQFPWQVVLNGKVDAFCGGSIVNEKWIVTAAHCVETGVKITVVAGEHNIEETEHTEQKRNVIRIIPHHNFNAAINTYNHDIALLELDEPLVLNSYVTPICIADKEYTNIFLKFGSGYVSGWGRVFHKGRSALVLQYLRVPLVDRATCLRSTKFTITNNMFCAGFHEGGRDSCQGDSGGPHVTEVEGTSFLTGIISWGEECAMKGKYGIYTKVSRYVNWIKEKTKLT,1.7 s⁻¹,0.3,
FIXa-K228N/K247N/N249S/R318Y/R338E/R403E/E410N (protein) chain 1: YNSGKLEEFVQGNLERECMEEKCSFEEAREVFENTERTTEFWKQYVDGDQCESNPCLNGGSCKDDINSYECWCPFGFEGKNCELDVTCNIKNGRCEQFCKNSADNKVVCSCTEGYRLAENQKSCEPAVPFPCGRVSVSQTSKLTR chain 2: VVGGEDAKPGQFPWQVVLNGKVDAFCGGSIVNEKWIVTAAHCVETGVNITVVAGEHNIEETEHTEQNRSVIRIIPHHNYNAAINKYNHDIALLELDEPLVLNSYVTPICIADKEYTNIFLKFGSGYVSGWGRVFHKGYSALVLQYLRVPLVDRATCLESTKFTIYNNMFCAGFHEGGRDSCQGDSGGPHVTEVEGTSFLTGIISWGEECAMKGKYGIYTKVSEYVNWIKNKTKLT,6.1 s⁻¹,> 517,
FIXa-A103N/N105S/K247N/N249S/R318Y/R338E/R403E/E410N (protein) chain 1: YNSGKLEEFVQGNLERECMEEKCSFEEAREVFENTERTTEFWKQYVDGDQCESNPCLNGGSCKDDINSYECWCPFGFEGKNCELDVTCNIKNGRCEQFCKNSNDSKVVCSCTEGYRLAENQKSCEPAVPFPCGRVSVSQTSKLTR chain 2: VVGGEDAKPGQFPWQVVLNGKVDAFCGGSIVNEKWIVTAAHCVETGVKITVVAGEHNIEETEHTEQNRSVIRIIPHHNYNAAINKYNHDIALLELDEPLVLNSYVTPICIADKEYTNIFLKFGSGYVSGWGRVFHKGYSALVLQYLRVPLVDRATCLESTKFTIYNNMFCAGFHEGGRDSCQGDSGGPHVTEVEGTSFLTGIISWGEECAMKGKYGIYTKVSEYVNWIKNKTKLT,4.1 s⁻¹,129,1.5e+08 M⁻¹ s⁻¹
FIXa-I251S/R318Y/R338E/E410N (protein) chain 1: YNSGKLEEFVQGNLERECMEEKCSFEEAREVFENTERTTEFWKQYVDGDQCESNPCLNGGSCKDDINSYECWCPFGFEGKNCELDVTCNIKNGRCEQFCKNSADNKVVCSCTEGYRLAENQKSCEPAVPFPCGRVSVSQTSKLTR chain 2: VVGGEDAKPGQFPWQVVLNGKVDAFCGGSIVNEKWIVTAAHCVETGVKITVVAGEHNIEETEHTEQKRNVSRIIPHHNYNAAINKYNHDIALLELDEPLVLNSYVTPICIADKEYTNIFLKFGSGYVSGWGRVFHKGYSALVLQYLRVPLVDRATCLESTKFTIYNNMFCAGFHEGGRDSCQGDSGGPHVTEVEGTSFLTGIISWGEECAMKGKYGIYTKVSRYVNWIKNKTKLT,6.2 s⁻¹,303,3.9e+08 M⁻¹ s⁻¹
FIXa-D85N/K228N/R318Y/R338E/R403E/E410N (protein) chain 1: YNSGKLEEFVQGNLERECMEEKCSFEEAREVFENTERTTEFWKQYVDGDQCESNPCLNGGSCKDDINSYECWCPFGFEGKNCELNVTCNIKNGRCEQFCKNSADNKVVCSCTEGYRLAENQKSCEPAVPFPCGRVSVSQTSKLTR chain 2: VVGGEDAKPGQFPWQVVLNGKVDAFCGGSIVNEKWIVTAAHCVETGVNITVVAGEHNIEETEHTEQKRNVIRIIPHHNYNAAINKYNHDIALLELDEPLVLNSYVTPICIADKEYTNIFLKFGSGYVSGWGRVFHKGYSALVLQYLRVPLVDRATCLESTKFTIYNNMFCAGFHEGGRDSCQGDSGGPHVTEVEGTSFLTGIISWGEECAMKGKYGIYTKVSEYVNWIKNKTKLT,6 s⁻¹,> 517,
FIXa-K247N/N249S/R318Y/R338E/R403E/E410N (protein) chain 1: YNSGKLEEFVQGNLERECMEEKCSFEEAREVFENTERTTEFWKQYVDGDQCESNPCLNGGSCKDDINSYECWCPFGFEGKNCELDVTCNIKNGRCEQFCKNSADNKVVCSCTEGYRLAENQKSCEPAVPFPCGRVSVSQTSKLTR chain 2: VVGGEDAKPGQFPWQVVLNGKVDAFCGGSIVNEKWIVTAAHCVETGVKITVVAGEHNIEETEHTEQNRSVIRIIPHHNYNAAINKYNHDIALLELDEPLVLNSYVTPICIADKEYTNIFLKFGSGYVSGWGRVFHKGYSALVLQYLRVPLVDRATCLESTKFTIYNNMFCAGFHEGGRDSCQGDSGGPHVTEVEGTSFLTGIISWGEECAMKGKYGIYTKVSEYVNWIKNKTKLT,5.8 s⁻¹,418,
FIXa-D104N/K106S/I251S/R318Y/R338E/R403E/E410N (protein) chain 1: YNSGKLEEFVQGNLERECMEEKCSFEEAREVFENTERTTEFWKQYVDGDQCESNPCLNGGSCKDDINSYECWCPFGFEGKNCELDVTCNIKNGRCEQFCKNSANNSVVCSCTEGYRLAENQKSCEPAVPFPCGRVSVSQTSKLTR chain 2: VVGGEDAKPGQFPWQVVLNGKVDAFCGGSIVNEKWIVTAAHCVETGVKITVVAGEHNIEETEHTEQKRNVSRIIPHHNYNAAINKYNHDIALLELDEPLVLNSYVTPICIADKEYTNIFLKFGSGYVSGWGRVFHKGYSALVLQYLRVPLVDRATCLESTKFTIYNNMFCAGFHEGGRDSCQGDSGGPHVTEVEGTSFLTGIISWGEECAMKGKYGIYTKVSEYVNWIKNKTKLT,5.5 s⁻¹,> 517,
FIXa-D104N/K106S/K247N/N249S/R318Y/R338E/R403E/E410N (protein) chain 1: YNSGKLEEFVQGNLERECMEEKCSFEEAREVFENTERTTEFWKQYVDGDQCESNPCLNGGSCKDDINSYECWCPFGFEGKNCELDVTCNIKNGRCEQFCKNSANNSVVCSCTEGYRLAENQKSCEPAVPFPCGRVSVSQTSKLTR chain 2: VVGGEDAKPGQFPWQVVLNGKVDAFCGGSIVNEKWIVTAAHCVETGVKITVVAGEHNIEETEHTEQNRSVIRIIPHHNYNAAINKYNHDIALLELDEPLVLNSYVTPICIADKEYTNIFLKFGSGYVSGWGRVFHKGYSALVLQYLRVPLVDRATCLESTKFTIYNNMFCAGFHEGGRDSCQGDSGGPHVTEVEGTSFLTGIISWGEECAMKGKYGIYTKVSEYVNWIKNKTKLT,5.2 s⁻¹,> 517,
FIXa-I251S/R318Y/R338E/R403E/E410N (protein) chain 1: YNSGKLEEFVQGNLERECMEEKCSFEEAREVFENTERTTEFWKQYVDGDQCESNPCLNGGSCKDDINSYECWCPFGFEGKNCELDVTCNIKNGRCEQFCKNSADNKVVCSCTEGYRLAENQKSCEPAVPFPCGRVSVSQTSKLTR chain 2: VVGGEDAKPGQFPWQVVLNGKVDAFCGGSIVNEKWIVTAAHCVETGVKITVVAGEHNIEETEHTEQKRNVSRIIPHHNYNAAINKYNHDIALLELDEPLVLNSYVTPICIADKEYTNIFLKFGSGYVSGWGRVFHKGYSALVLQYLRVPLVDRATCLESTKFTIYNNMFCAGFHEGGRDSCQGDSGGPHVTEVEGTSFLTGIISWGEECAMKGKYGIYTKVSEYVNWIKNKTKLT,4.8 s⁻¹,> 517,
FIXa-Y155F/K247N/N249S/R318Y/R338E/R403E/E410N (protein) chain 1: YNSGKLEEFVQGNLERECMEEKCSFEEAREVFENTERTTEFWKQYVDGDQCESNPCLNGGSCKDDINSYECWCPFGFEGKNCELDVTCNIKNGRCEQFCKNSADNKVVCSCTEGYRLAENQKSCEPAVPFPCGRVSVSQTSKLTR chain 2: VVGGEDAKPGQFPWQVVLNGKVDAFCGGSIVNEKWIVTAAHCVETGVKITVVAGEHNIEETEHTEQNRSVIRIIPHHNYNAAINKYNHDIALLELDEPLVLNSYVTPICIADKEYTNIFLKFGSGYVSGWGRVFHKGYSALVLQYLRVPLVDRATCLESTKFTIYNNMFCAGFHEGGRDSCQGDSGGPHVTEVEGTSFLTGIISWGEECAMKGKYGIYTKVSEYVNWIKNKTKLT,6.5 s⁻¹,> 517,1.9e+08 M⁻¹ s⁻¹
FIXa-Y155F/K228N/R318Y/R338E/R403E/E410N (protein) chain 1: YNSGKLEEFVQGNLERECMEEKCSFEEAREVFENTERTTEFWKQYVDGDQCESNPCLNGGSCKDDINSYECWCPFGFEGKNCELDVTCNIKNGRCEQFCKNSADNKVVCSCTEGYRLAENQKSCEPAVPFPCGRVSVSQTSKLTR chain 2: VVGGEDAKPGQFPWQVVLNGKVDAFCGGSIVNEKWIVTAAHCVETGVNITVVAGEHNIEETEHTEQKRNVIRIIPHHNYNAAINKYNHDIALLELDEPLVLNSYVTPICIADKEYTNIFLKFGSGYVSGWGRVFHKGYSALVLQYLRVPLVDRATCLESTKFTIYNNMFCAGFHEGGRDSCQGDSGGPHVTEVEGTSFLTGIISWGEECAMKGKYGIYTKVSEYVNWIKNKTKLT,9.7 s⁻¹,> 517,
FIXa-K247N/N249S/R318Y/R338E/E410N (protein) chain 1: YNSGKLEEFVQGNLERECMEEKCSFEEAREVFENTERTTEFWKQYVDGDQCESNPCLNGGSCKDDINSYECWCPFGFEGKNCELDVTCNIKNGRCEQFCKNSADNKVVCSCTEGYRLAENQKSCEPAVPFPCGRVSVSQTSKLTR chain 2: VVGGEDAKPGQFPWQVVLNGKVDAFCGGSIVNEKWIVTAAHCVETGVKITVVAGEHNIEETEHTEQNRSVIRIIPHHNYNAAINKYNHDIALLELDEPLVLNSYVTPICIADKEYTNIFLKFGSGYVSGWGRVFHKGYSALVLQYLRVPLVDRATCLESTKFTIYNNMFCAGFHEGGRDSCQGDSGGPHVTEVEGTSFLTGIISWGEECAMKGKYGIYTKVSRYVNWIKNKTKLT,3.8 s⁻¹,78.3,
FIXa-Y155F/I251S/R318Y/R338E/R403E/E410N (protein) chain 1: YNSGKLEEFVQGNLERECMEEKCSFEEAREVFENTERTTEFWKQYVDGDQCESNPCLNGGSCKDDINSYECWCPFGFEGKNCELDVTCNIKNGRCEQFCKNSADNKVVCSCTEGYRLAENQKSCEPAVPFPCGRVSVSQTSKLTR chain 2: VVGGEDAKPGQFPWQVVLNGKVDAFCGGSIVNEKWIVTAAHCVETGVKITVVAGEHNIEETEHTEQKRNVSRIIPHHNYNAAINKYNHDIALLELDEPLVLNSYVTPICIADKEYTNIFLKFGSGYVSGWGRVFHKGYSALVLQYLRVPLVDRATCLESTKFTIYNNMFCAGFHEGGRDSCQGDSGGPHVTEVEGTSFLTGIISWGEECAMKGKYGIYTKVSEYVNWIKNKTKLT,7.2 s⁻¹,> 517,
